Experimental data as given in patent publication US20210393685A1 (TRUSTEES OF COLUMBIA UNIVERSITY IN THE CITY OF NEW YORK, published 2021).

Molecular target: T1, CD33 on cord blood CD34+ cells (human, UniProt P20138 18-364)
T1 construct: whole, on cells; also called CD33 antigen
Assay: flow cytometry on CD33-expressing cord blood CD34+ cells, detected with FITC anti-Myc antibody
Procedure: The binding of the anti-CD33-ULBP1 chimera with CD33 antigen-expressing cord blood CD34+ cells or NKG2D-expressing primary NK cells was tested using flow cytometry. Briefly, primary NK cells were purified from peripheral blood of donors. CD34+ cells were purified from cord blood of donors. Purified cells were incubated with the elute from the mock, chimera 1 or chimera 2 proteins purified from the cell supernatant. The cells were also incubated with FITC-conjugated anti-Myc antibody and analyzed using a flow cytometer.

T1 sequence (P20138 18-364): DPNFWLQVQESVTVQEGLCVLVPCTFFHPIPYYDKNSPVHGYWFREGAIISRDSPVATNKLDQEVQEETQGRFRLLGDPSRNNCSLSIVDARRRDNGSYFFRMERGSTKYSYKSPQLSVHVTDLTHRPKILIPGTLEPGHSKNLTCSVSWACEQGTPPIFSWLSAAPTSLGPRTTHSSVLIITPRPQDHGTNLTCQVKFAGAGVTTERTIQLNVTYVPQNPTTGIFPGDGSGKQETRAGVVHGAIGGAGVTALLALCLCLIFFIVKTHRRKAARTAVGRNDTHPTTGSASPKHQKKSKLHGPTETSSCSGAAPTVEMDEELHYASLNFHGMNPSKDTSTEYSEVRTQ

Row | binding result | Binder
1 | binds | anti-CD33-ULBP1 chimera 1 (CD33-ULBP1-1) (other, also called αCD33-ULBP1 chimera 1) EIVLTQSPGSLAVSPGERVTMSCKSSQSVFFSSSQKNYLAWYQQIPGQSPRLLIYWASTRESGVPDRFTGSGSGTDFTLTISSVQPEDLAIYYCHQYLSSRTFGQGTKLEIKRGSTSGSGKPGSGEGSTKGQVQLQQPGAEVVKPGASVKMSCKASGYTFTSYYIHWIKQTPGQGLEWVGVIYPGNDDISYNQKFQGKATLTADKSSTTAYMQLSSLTSEDSAVYYCAREVRLRYFDVWGQGTTVTVSSSSSAGGGGSGGGGSGGGGSWVDTHCLCYDFIITPKSRPEPQWCEVQGLVDERPFLHYDCVNHKAKAFASLGKKVNVTKTWEEQTETLRDVVDFLKGQLLDIQVENLIPIEPLTLQARMSCEHEAHGHGRGSWQFLFNGQKFLLFDSNNRKWTALHPGAKKMTEKWEKNRDVTMFFQKISLGDCKMWLEEFLMYWEQMLDPTKPPSLAPGEQKLISEEDLHHHHHH
2 | binds | anti-CD33-ULBP1 chimera 2 (CD33-ULBP1-2, with proline) (other, also called αCD33-ULBP1 chimera 2) EIVLTQSPGSLAVSPGERVTMSCKSSQSVFFSSSQKNYLAWYQQIPGQSPRLLIYWASTRESGVPDRFTGSGSGTDFTLTISSVQPEDLAIYYCHQYLSSRTFGQGTKLEIKRGSTSGSGKPGSGEGSTKGQVQLQQPGAEVVKPGASVKMSCKASGYTFTSYYIHWIKQTPGQGLEWVGVIYPGNDDISYNQKFQGKATLTADKSSTTAYMQLSSLTSEDSAVYYCAREVRLRYFDVWGQGTTVTVSSSSSAGGGGSGGGGSGGGGSPWVDTHCLCYDFIITPKSRPEPQWCEVQGLVDERPFLHYDCVNHKAKAFASLGKKVNVTKTWEEQTETLRDVVDFLKGQLLDIQVENLIPIEPLTLQARMSCEHEAHGHGRGSWQFLFNGQKFLLFDSNNRKWTALHPGAKKMTEKWEKNRDVTMFFQKISLGDCKMWLEEFLMYWEQMLDPTKPPSLAPGEQKLISEEDLHHHHHH
